{
  "source": "paper PMC11930087",
  "about": "“Mobility of four structural regions drives isoform-specific properties of photoenzyme LPOR in plants” (The Journal of Biological Chemistry, 2025)",
  "proteins": {"B1": {"name": "light-dependent protochlorophyllide oxidoreductase B from Arabidopsis thaliana (enzyme)", "chain": "QTAATSSPTVTKSVDGKKTLRKGNVVVTGASSGLGLATAKALAETGKWNVIMACRDFLKAERAAKSVGMPKDSYTVMHLDLASLDSVRQFVDNFRRTETPLDVLVCNAAVYFPTAKEPTYSAEGFELSVATNHLGHFLLARLLLDDLKKSDYPSKRLIIVGSITGNTNTLAGNVPPKANLGDLRGLAGGLNGLNSSAMIDGGDFDGAKAYKDSKVCNMLTMQEFHRRFHEETGVTFASLYPGCIASTGLFREHIPLFRALFPPFQKYITKGYVSETESGKRLAQVVSDPSLTKSGVYWSWNNASASFENQLSEEASDVEKARKVWEISEKLVGLA", "notes": "LPOR B of Arabidopsis thaliana, P21218; probably without the transit peptide, as the constructs cloned here; In the assays it stood with Pchlide, NADPH and lipids; also called AtPORB; LPOR"}},
  "target": "the molecule itself",
  "assay": "negative-stain transmission electron microscopy; reaction mixtures of 5 μM Pchlide, 15 μM AtPORB, 200 μM NADPH and either 100 μM lowMGDG lipid mixture (2.5 mol% MGDG, 47.5 mol% PG, 50 mol% DGDG) or OPT lipids; filaments seen",
  "data": [
    {"protein": "B1", "values": [
      {"measurement": "binding result", "result": "binds"}
    ]}
  ]
}
